Test results published in article doi:10.1101/2025.09.11.675134, “Biodistribution-Driven Discovery Identifies a Glycosidase-Cleavable Linker to Reprogram Radiotheranostics” (bioRxiv, 2025).

System: AR42J xenografts
Test: Dosimetry estimates of 225Ac-labeled variants from biodistribution data
Type: in vivo, athymic nu/nu mice
Description: To evaluate the organ-level radiation absorbed dose resulting from different DOTA-TATE derivatives, we calculated the total effective dose per unit of injected activity (Eff Dose/IA, mSv/MBq) for ^225Ac-labeled variants based on biodistribution data in AR42J xenograft-bearing mice (Tables S5).
Estimated absorbed doses for individual organs for ^225Ac- and ^86Y-labeled DOTA-TATE variants were derived from residence times calculated using %IA/g data from biodistribution studies. The time–activity curves incorporated data from both radionuclides to provide complete coverage of early and late time points. Details of the dosimetry methodology, including time–activity curve construction, integration approach, decay assumptions, and conversion to effective dose, are provided in the Supplementary Information.
Dosimetry: The dosimetry was calculated by measuring the residence time per gram for each organ using the percent injected activity per gram (%IA/g) data collected for the biodistribution study. Because two biodistribution data sample groups were collected, one for the 86Y and the other for the 225Ac variant of the three DOTA-TATE variants (DOTA-TATE, DOTA-MVK(ε)- TATE, and DOTA-β-Gal-TATE) the %IA/g time activity curves (TAC) of the 86Y variant were merged with the 225Ac TACs. This was possible because of the difference in half lives between 86Y and 225Ac being 14.74 and 237.8 hours respectively setting the measurement time points to be 1, 4 and 24 hours for the 86Y ligands and 24, 96 hours for 225Ac. The full time activity curve is thus made up of the 1 and 4 hour time points of the 86Y %IA/g data points, an average of the common 24 hour time point of the 86Y and 225Ac %IA/g data points and the last 96 hour %IA/g time point of the 225Ac samples. The full 4 time points of 1, 4, 24, and 96 hours making up the […]
from which the residence times were calculated.
The integration of the TAC was performed using trapezoidal interpolation between time points.
The first time point assumed constant activity and a decay curve with the half life of the radioisotope was used to estimate activity beyond 96 hours. The average %IA/g was used for each tissue sample for each time point and the resulting standard deviation of the average was then used as the error estimate per time point to propagate through the residence time calculation.
Using the residence time for each TAC, the dose was calculated by looking up the dose per decay for each alpha, beta (positron and electron from nuclear beta decay) and electron emission listed in the nuclear data sheets provided by the Brookhaven National Laboratory National Nuclear Data Center. Since the 225Ac decays via a complicated decay chain, it is assumed that the dose from the daughters remains in the tissue assuming no biological dissemination once the 225Ac decays breaking the bonds of the DOTA-TATE ligand. The following mean dose per decay were used. For 225Ac, 27.58MeV/Bq-s for alpha emissions, 1.33MeV/Bq-s for beta plus electron emissions. For 86Y, 0.219 MeV/Bq-s for beta and electron emissions. Gamma emissions were ignored because of the small size of the tissue samples have small gamma absorption effects which would contribute negligibly to the dose calculation. Furthermore, dosimetry estimate […]
inter organ activity can be calculated(62).
To estimate the effective dose in mSv/MBq, a radiological factor of 5 was used to multiply the dose calculated from the alpha ionizations while a factor of 1 was used for the beta and electron ionizations to convert from mGy/MBq to mSv/MBq (63, 64).

[1] = 225Ac-labeled, AR42J xenografts, from biodistribution time-activity curves, alpha factor 5, mean, n = 4–5
[2] = 225Ac-labeled, dosimetry estimate
[3] = absorbed-dose estimate at 148 kBq per mouse

Compound | Absorbed dose to kidney (mouse, in vivo) [Gy] | Absorbed dose to tumor (mouse, in vivo) [Gy] | Total effective dose per injected activity, Blood (mouse, in vivo) [mSv/MBq] | Total effective dose per injected activity, Femur (mouse, in vivo) [mSv/MBq] | Total effective dose per injected activity, Heart (mouse, in vivo) [mSv/MBq] | Total effective dose per injected activity, Intestine (mouse, in vivo) [mSv/MBq] | Total effective dose per injected activity, Kidney (mouse, in vivo) | Total effective dose per injected activity, Liver (mouse, in vivo) [mSv/MBq] | Total effective dose per injected activity, Lung (mouse, in vivo) [mSv/MBq] | Total effective dose per injected activity, Muscle (mouse, in vivo) [mSv/MBq] | Total effective dose per injected activity, Spleen (mouse, in vivo) [mSv/MBq] | Total effective dose per injected activity, Tumor (mouse, in vivo) | also measured
C[C@@H](O)[C@H](NC(=O)[C@@H]1CSSC[C@H](NC(=O)[C@@H](Cc2ccccc2)NC(=O)CN2CCN(CC(=O)O)CCN(CC(=O)O)CCN(CC(=O)O)CC2)C(=O)N[C@@H](Cc2ccc(O)cc2)C(=O)N[C@H](Cc2c[nH]c3ccccc23)C(=O)N[C@@H](CCCCN)C(=O)N[C@@H]([C@@H](C)O)C(=O)N1)C(=O)O [^225Ac-DOTA-TATE, metal not drawn, reference compound] | 16.2 | 13.2 | 4.00E+03 | 5.86E+04 | 1.42E+04 | 3.04E+04 | 5.27 × 10^5 mSv/MBq | 6.47E+04 | 3.85E+04 | 9.33E+03 | 3.41E+04 | 4.30 × 10^5 mSv/MBq | –
C[C@@H](O)[C@H](NC(=O)[C@@H]1CSSC[C@H](NC(=O)[C@@H](Cc2ccccc2)NC(=O)CCCC(=O)Nc2cc(COC(=O)N(C)CCNC(=O)CN3CCN(CC(=O)O)CCN(CC(=O)O)CCN(CC(=O)O)CC3)ccc2O[C@@H]2O[C@H](CO)[C@H](O)[C@H](O)[C@H]2O)C(=O)N[C@@H](Cc2ccc(O)cc2)C(=O)N[C@H](Cc2c[nH]c3ccccc23)C(=O)N[C@@H](CCCCN)C(=O)N[C@@H]([C@@H](C)O)C(=O)N1)C(=O)O [^225Ac-DOTA-β-Gal-TATE, metal not drawn] | – | – | – | – | – | – | – | – | – | – | – | – | Total effective dose per injected activity, Femur [1]: 7.96E+04 mSv/MBq; Total effective dose per injected activity, Heart [1]: 1.20E+04 mSv/MBq; Total effective dose per injected activity, Intestine [1]: 2.87E+04 mSv/MBq; Total effective dose per injected activity, Kidney [1]: 1.56 × 10^5 mSv/MBq; Total effective dose per injected activity, Liver [1]: 1.34E+05 mSv/MBq; Total effective dose per injected activity, Lung [1]: 1.91E+04 mSv/MBq; Total effective dose per injected activity, Muscle [1]: 1.02E+04 mSv/MBq; Total effective dose per injected activity, Spleen [1]: 3.37E+04 mSv/MBq; Total effective dose per injected activity, Tumor [1]: 1.06 × 10^6 mSv/MBq; Total effective dose per injected activity, Blood (225Ac-labeled, AR42J xenografts, from merged 86Y/225Ac time-activity curves (1, 4, 24, 96 h), alpha factor 5, mean, n = 4–5): 3.93E+03 mSv/MBq; Tumor dose higher than that of 225Ac-DOTA-MVK(ε)-TATE [2]: 1.59 fold; Tumor dose higher than that of 225Ac-DOTA-TATE [2]: 2.46 fold; Absorbed dose to kidney [3]: 4.8 Gy; Absorbed dose to tumor [3]: 32.5 Gy; Reduction of kidney dose versus 225Ac-DOTA-MVK(ε)-TATE [3]: ~15%
CSCC[C@H](NC(=O)CN1CCN(CC(=O)O)CCN(CC(=O)O)CCN(CC(=O)O)CC1)C(=O)N[C@H](C(=O)N[C@@H](CCCCNC(=O)CCCC(=O)N[C@H](Cc1ccccc1)C(=O)N[C@H]1CSSC[C@@H](C(=O)N[C@H](C(=O)O)[C@@H](C)O)NC(=O)[C@H]([C@@H](C)O)NC(=O)[C@H](CCCCN)NC(=O)[C@@H](Cc2c[nH]c3ccccc23)NC(=O)[C@H](Cc2ccc(O)cc2)NC1=O)C(=O)O)C(C)C [^225Ac-DOTA-MVK(ε)-TATE, metal not drawn] | 5.7 | 20.4 | 3.44E+03 | 4.19E+04 | 1.06E+04 | 2.36E+04 | 1.85 × 10^5 mSv/MBq | 1.02E+05 | 1.95E+04 | 7.16E+03 | 2.55E+04 | 6.64 × 10^5 mSv/MBq | Reduction of kidney dose versus 225Ac-DOTA-TATE (mouse, in vivo): 65 to 70%
